Measured values published in US10377818B2, “Method of treating glioma” (The Board of Trustees of the Leland Stanford Junior …, priority 2015, dated 2019).

Columns and labels:
SU-pcGBM2 cells = assay: Annexin V FACS analysis of cell death; assay type: cell-based; details: 50 nM NLGN3, 24 h vs PBS
Protocol: After 24-hr exposure to PBS or NLGN3 (50 nM), SU-pcGBM2 cells were stained with DAPI (X-axis) and Annexin V-FITC (Y-axis) to detect cell death by FACS analysis, performed in biological duplicate. Live Annexin V^−/DAPI^− cells shown in lower left quadrant of contour plots; pre-apoptotic Annexin V^+/DAPI^− cells, left upper quadrant; dead Annexin V^+/DAPI^+ cells, right upper quadrant.
SU-pcGBM2 cells were cultured in minimal growth media together with 50 nM NLGN-3 recombinant protein (dissolved in PBS) or PBS only as a vehicle control in duplicate for 24 hrs. Cells were harvested for FACS analyses of apoptosis using Annexin V-FITC Apoptosis Detection Kit II (556570, BD Biosciences) according to the manufacturer's instruction with slight modifications. DAPI was used in combination with Annexin V-FITC to stain the apoptotic cell population instead of PI. The stained cells were analyzed using a BD Fortessa FACS machine (BD Biosciences). The data were analyzed using Flowjo software (FLOWJO, LLC).

[1] = system: HGG patient-derived cell lines (pediatric cortical glioblastoma, DIPG, adult glioblastoma); assay: EdU proliferation index of various HGG patient-derived cell lines exposed to NLGN3; assay type: cell-based, human; details: 50 nM NLGN3 for 24 hours
Protocol: A) Recombinant NLGN3 promotes pediatric high-grade glioma cell proliferation in a dose-dependent manner, plateauing at a low nanomolar concentration. 7-point dose curve plots proliferation index as measured by EdU^+/DAPI^+ staining at 24 hours following exposure of SU-pcGBM2 cells to NLGN3 at concentrations ranging from 0-100 nM. Shaded region indicates concentration present in active CM. B) Proliferation indices of various HGG patient-derived cell lines exposed to 50 nM NLGN3 for 24 hours. Data are shown as mean±SEM. ***P<0.001 by unpaired two-tailed Student's t-tests. C) Neurexin-1β, which binds to NLGN3 with high affinity, abrogates the mitogenic effect of active slice CM. […]
NLGN3 promotes proliferation in a broad range of HGG cultures. […] After 24-hour exposure, all cell lines were evaluated with the EdU assay to determine proliferation index (unpaired two-tailed Student's t-tests).
To assess the number of cells actively synthesizing new DNA in response to various conditions (see extended experimental procedures), SU-pcGBM2, SU-DIPGIV, SU-DIPGXIII, or SU-GBM035 cells were exposed to active CM or various recombinant proteins along with 10-μM EdU and fixed after 24 hours. EdU incorporation was determined using Click-iT EdU visualization (Invitrogen, Grand Island, N.Y.). […]

[2] = system: MAPK pathway (phospho-ERK1/2 T202/Y204); assay: Western blot of phospho-ERK1/2 as indicator of MAPK pathway activation; assay type: cell-based, human; details: NLGN3 50 nM vs aCSF
Protocol: A) Western blot analysis of phosphorylated ERK1/2 (Thr202/Tyr204) and total ERK1/2 in SU-pcBGM2 cells after exposure to either aCSF or NLGN3 (50 nM). […] B) Phosphorylated ERK1/2 levels were normalized to total ERK1/2 levels. […] All experiments performed in three biological replicates and analyzed by unpaired two-way Student's t-test. Data presented as mean±SEM. **P<0.01, ***P<0.001. n.s. indicates P>0.05.
Endogenous protein levels were determined using Western blot analysis. Briefly, after various treatments, 400,000 SU-pcGBM2 cells were lysed and loaded onto SDS-PAGE gels. Proteins were separated with gel electrophoresis and transferred to a PVDF membrane. Proteins were then probed for various antibodies as described in extended experimental procedures.

B1: NLGN3: Recombinant full-length neuroligin-3 (Origene), tested as glioma mitogen (protein, listed as Mus musculus)
chain: MWLQPSLSLSPTPTVGRSLCLTLGFLSLVLRASTQAPAPTVNTHFGKLRGARVPLPSEILGPVDQYLGVPYAAPPIGEKRFLPPEPPPSWSGIRNATHFPPVCPQNIHTAVPEVMLPVWFTANLDIVATYIQEPNEDCLYLNVYVPTEDGSGAKKQGEDLADNDGDEDEDIRDSGAKPVMVYIHGGSYMEGTGNMIDGSVLASYGNVIVITLNYRVGVLGFLSTGDQAAKGNYGLLDQIQALRWVSENIAFFGGDPRRITVFGSGIGASCVSLLTLSHHSEGLFQRAIIQSGSALSSWAVNYQPVKYTSLLADKVGCNVLDTVDMVDCLRQKSAKELVEQDIQPARYHVAFGPVIDGDVIPDDPEILMEQGEFLNYDIMLGVNQGEGLKFVEGVVDPEDGVSGTDFDYSVSNFVDNLYGYPEGKDTLRETIKFMYTDWADRDNPETRRKTLVALFTDHQWVEPSVVTADLHARYGSPTYFYAFYHHCQSLMKPAWSDAAHGDEVPYVFGVPMVGPTDLFPCNFSKNDVMLSAVVMTYWTNFAKTGDPNKPVPQDTKFIHTKANRFEEVAWSKYNPRDQLYLHIGLKPRVRDHYRATKVAFWKHLVPHLYNLHDMFHYTSTTTKVPPPDTTHSSHITRRPNGKTWSTKRPAISPAYSNENAPGSWNGDQDAGPLLVENPRDYSTELSVTIAVGASLLFLNVLAFAALYYRKDKRRQEPLRQPSPQRGTGAPELGTAPEEELAALQLGPTHHECEAGPPHDTLRLTALPDYTLTLRRSPDDIPLMTPNTITMIPNSLVGLQTLHPYNTFAAGFNSTGLPHSHSTTRV
- cell death by Annexin V FACS analysis (SU-pcGBM2 cells): no change in cell death
- effect on proliferation index [1]: promoted a significant increase in the proliferation index
- phospho-ERK1/2 T202/Y204 [2]: did not reveal upregulation
